T1: recombinant RNase H2 complex (hRNASEH2BCA) (human, UniProt Q5TBB1 1-312; Q8TDP1 1-164; O75792 1-299)
T1 construct: RNASEH2B, human, non-catalytic accessory subunit of RNase H2; RNASEH2C, human, non-catalytic accessory subunit of RNase H2; RNASEH2A, human, catalytic subunit of RNase H2; Heterotrimer formed beforehand by co-expression; also called RH2; source: E. coli, purified (GST pulldown, then AKTA FPLC); copies: + +
T1 sequence (looked up) 1: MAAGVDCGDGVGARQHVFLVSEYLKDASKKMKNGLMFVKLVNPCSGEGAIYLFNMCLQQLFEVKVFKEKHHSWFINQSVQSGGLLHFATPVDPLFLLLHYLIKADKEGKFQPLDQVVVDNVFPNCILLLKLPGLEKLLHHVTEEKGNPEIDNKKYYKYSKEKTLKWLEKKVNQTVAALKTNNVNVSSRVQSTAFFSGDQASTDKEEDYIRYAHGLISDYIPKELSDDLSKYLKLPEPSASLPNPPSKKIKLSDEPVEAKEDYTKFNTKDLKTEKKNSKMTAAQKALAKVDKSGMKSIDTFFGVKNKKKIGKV
T1 sequence (looked up) 2: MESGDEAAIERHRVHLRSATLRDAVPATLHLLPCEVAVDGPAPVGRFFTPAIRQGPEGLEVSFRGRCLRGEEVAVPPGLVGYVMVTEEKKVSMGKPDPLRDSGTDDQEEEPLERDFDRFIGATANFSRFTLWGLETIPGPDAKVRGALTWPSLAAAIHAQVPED
T1 sequence (looked up) 3: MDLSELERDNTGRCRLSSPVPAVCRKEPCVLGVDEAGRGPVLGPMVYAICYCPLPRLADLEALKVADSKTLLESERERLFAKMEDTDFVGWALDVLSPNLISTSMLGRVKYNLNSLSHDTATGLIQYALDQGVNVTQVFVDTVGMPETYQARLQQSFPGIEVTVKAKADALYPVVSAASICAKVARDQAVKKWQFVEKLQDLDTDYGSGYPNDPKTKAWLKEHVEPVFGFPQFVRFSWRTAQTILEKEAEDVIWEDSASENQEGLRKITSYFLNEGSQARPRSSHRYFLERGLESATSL


Tests used:
[1] = molecular target: T1, recombinant RNase H2 complex …; assay: co-IP; recombinant RNase H2 complex and RTF2 (0.5, 1, 2, 4 pmol) from E. coli mixed 2 hr at 4 °C in 20 mM HEPES pH 7.5, 1 mM DTT, 0.01% NP-40, 5% glycerol, 0.1 mg/mL BSA, 50 mM NaCl, benzonase; NaCl raised to 150 mM; Dynabeads 1 hr at 4 °C; immunoblot; settings: both partners purified
[2] = molecular target: T1, recombinant RNase H2 complex …; assay: co-IP; recombinant GFP-tagged RTF2 (0.5, 1, 2, 4 pmol) and RNase H2 complex from E. coli, immunoprecipitation as for untagged RTF2 (20 mM HEPES pH 7.5, 150 mM NaCl final, benzonase, Dynabeads); immunoblot; settings: both partners purified

binding result [1]	binding result [2]	Binder
binds		recombinant hRTF2 (natural protein, human, UniProt Q9BY42 1-306, looked up, Replication Termination Factor 2 (RTF2), human (hRTF2); source: E. coli, purified (IMAC, then AKTA FPLC)) MGCDGGTIPKRHELVKGPKKVEKVDKDAELVAQWNYCTLSQEILRRPIVACELGRLYNKDAVIEFLLDKSAEKALGKAASHIKSIKNVTELKLSDNPAWEGDKGNTKGDKHDDLQRARFICPVVGLEMNGRHRFCFLRCCGCVFSERALKEIKAEVCHTCGAAFQEDDVIMLNGTKEDVDVLKTRMEERRLRAKLEKKTKKPKAAESVSKPDVSEEAPGPSKVKTGKPEEASLDSREKKTNLAPKSTAMNESSSGKAGKPPCGATKRSIADSEESEAYKSLFTTHSSAKRSKEESAHWVTHTSYCF
	binds	recombinant GFP-tagged RTF2 (natural protein, human, UniProt Q9BY42 1-306, looked up, Replication Termination Factor 2 (RTF2), human (hRTF2 in the methods on recombinant proteins); also called GFP-RTF2; source: E. coli, purified) MGCDGGTIPKRHELVKGPKKVEKVDKDAELVAQWNYCTLSQEILRRPIVACELGRLYNKDAVIEFLLDKSAEKALGKAASHIKSIKNVTELKLSDNPAWEGDKGNTKGDKHDDLQRARFICPVVGLEMNGRHRFCFLRCCGCVFSERALKEIKAEVCHTCGAAFQEDDVIMLNGTKEDVDVLKTRMEERRLRAKLEKKTKKPKAAESVSKPDVSEEAPGPSKVKTGKPEEASLDSREKKTNLAPKSTAMNESSSGKAGKPPCGATKRSIADSEESEAYKSLFTTHSSAKRSKEESAHWVTHTSYCF

From paper PMC10908796, “RTF2 controls replication repriming and ribonucleotide excision at the replisome” (Nature Communications, 2024)
